Measurements from patent US20140024038A1, “METHOD AND REAGENTS FOR TREATING HEPATIC FIBROSIS AND INFLAMMATION” (Agency for Science, Technology and Research, priority 2006, published 2014).

How the values were obtained:
Type in all cases: cell-based, rat
[1] = tested on: HSC-T6, activated HSCs and CFSC-3H; assay: Cathepsin S activity measurement in HSCs after IFN-γ induction (BioVision kit, fluorogenic substrate); details: IFN-γ 10 ng/ml, 48 h, P<0.05 vs untreated, FIG. 9
Experimental: The cells were grown in cell culture medium containing 10% FBS in 75 cm^2 flasks. When the cells reached 50-60% confluence, IFN-γ was added at 10 ng/ml or omitted as untreated sample. The cells were harvested 48 h later and resuspended in CS cell lysis buffer. Cathepsin S activity was measured using a kit from BioVision (K1101-01) according to the provided manual. The final substrate concentration was 200 μM. Emitted fluorescence was measured using the Tecan Satire II (Tecan, Zurich, Switzerland) fluorescence plate reader at λex: 400 nm and λem: 505 nm. An AFC standard curve was used to calculate the released fluorophore in μM per μg protein per hour at 37° C.
To further investigate the induction of cathepsin S by IFN-γ, activity measurement was performed to directly detect cathepsin S in activated HSCs and both cell lines. FIG. 9 depicts the cathepsin S activity in activated HSCs and two different cell lines. The cells were grown in cell culture medium containing 10% FBS. When they reached 50-60% confluence, IFN-γ was added or omitted as control. The cells were harvested 48 h later and resuspended in CS cell lysis buffer. Cathepsin S activity was measured using a final substrate concentration of 200 μM. The specific activity is given in released fluorophore (AFC) in μM per μg protein per hour at 37° C. Data are presented as mean±SD*P<0.05.

[2] = tested on: HSC-T6, activated HSCs and CFSC-3H; assay: Real-time RT-PCR of Cat S, Cat L, CD74, CIITA and RT1-Dα after IFN-γ treatment
Experimental: HSC-T6, CFSC-3H and activated HSCs were plated into 75 cm^2 culture flasks and grown overnight at conditions described above. The cells at a confluence of 60-70% were incubated with 10 ng/ml final concentration (equivalent to 100 U/ml) of recombinant rat IFN-γ for 2, 4, 8 and 24 h. The recombinant rat interferon-γ (IFN-γ) was purchased from BioVision (CA, USA). Total RNA was isolated using the NucleoSpin RNAII isolation kit (Macherey & Nagel, Germany) according to the manufacturer's protocol. The RNA concentration was measured with the ND-100 spectrophotometer (NanoDrop Technologies, DE, USA).
Real-time PCR was performed using the ABI 7500 Real Time PCR System (Applied Biosystems, CA, USA). All reagents were purchased from this company unless otherwise stated. Total RNA was reverse transcribed to cDNA using reagents from the cDNA archive kit (4322171). 10 μg of total RNA was used in a total reverse transcription reaction volume of 100 μl. The RT step was performed for 10 min at 25° C. and 2 h at 37° C. In real-time PCR, 20× TaqMan gene expression assay mix of Cat S (Rn01534427_m1), Cat L (Rn00565793_m1), CD74 (Rn01491430_g1), CIITA (Rn01424723_g1) and RT1-Dα (Rn02346209g1), as well as 20×18s rRNA (4319413E) were used. For each real-time target, the reaction comprises of 3 μl cDNA, 0.5 μl 20×18S rRNA, 0.5 μl 20× TaqMan gene expression assay, 1 μl nuclease-free water and 5 μl TaqMan Universal PCR master mix (4352042). Conditions for PCR were 2 min 50° C., 10 min 95° C. and 40 cycles of 15 s 95° C. and 1 min 60° C. The comparative threshold method was used to quantitate relative changes of target mRNA (User Bulletin #2, Applied Biosystems). Relative quantitation of target mRNA was expressed as fold change in gene expression to control (untreated). The data presented are representative for three independent experiments with the same trend. The graphs were made using OrignPro 7 (OriginLab, MA, USA).
FIG. 3A-3C depicts a quantitative analysis of the change in cathepsin S, CIITA, CD74 and RT1-Dα transcript level upon treatment with IFN-γ using real-time RT-PCR. After treatment with IFN-γ for 2, 4, 8 and 24 h, total RNA was extracted from the three different HSCs (activated HSC, HSC-T6 and CFSC-3H). The RNA was reverse transcribed and real-time RT-PCR was performed using TaqMan assays. The results were expressed as fold change in gene expression compared to the untreated samples using the relative quantification method for HSC-T6 (FIG. 3A), activated HSCs (FIG. 3B) and CFSC-3H (FIG. 3C).

[3] = tested on: HSC-T6 and activated HSCs; assay: Immunofluorescence staining of CD74, RT1-B and cathepsin S proteins after IFN-γ treatment
Experimental: The primary cells were grown in DMEM supplemented with 10% FBS on glass cover slips in 24-well culture plates prior to staining with antibodies against GFAP, SMAA, Desmin, RECA-1, ED-2, cathepsin S, RT1-B and CD74. At 60-70% confluence, the cells were washed once with sterile PBS and fixed with 4% paraformaldehyde (PFA) for 30 min at 4° C., followed by three washes with PBS. The cells were blocked and permeabilized in blocking solution (10% horse serum, 0.1% Triton X-100 in PBS) for 1 h at 37° C. The primary antibody was incubated in 10% blocking solution in PBS for 1 h at 37° C. followed by the secondary antibody under the same conditions. The primary antibody was omitted as a negative control. All images were taken with the LEICA DM IRB epifluorescence microscope using a 63× objective.
For induction experiments, IFN-γ was added to the cell culture at low confluence and the cells were cultivated further for different times depending on the targets to be stained (Cat S: 0, 4, 8, 24, 30 h; CD74: 0, 8, 24, 30 h; and RT1-B: 0, 24, 48 h). The presented images are representative for 3 experiments. Images were taken with a 40× objective. The fluorescence intensities from 3 to 7 different fields of vision of one representative experiment were quantified using the Image processing toolbox of the MATLAB platform (MathWorks, MA, USA). The following antibodies were used in the immunofluorescent staining. Anti-Cat S antibody (sc-6505) and anti-CD74 antibody (sc-5438) were from Santa Cruz Biotechnology (CA, USA); anti-RT1-B antibody (554926) was from BD Pharmingen (CA, USA); anti-GFAP antibody (Z 0334) was from Dako (CA, USA); and anti-SMAA-Cy3 (C 6198) and antidesmin antibody (D 8281) were from Sigma Chemicals (MO, USA). The anti-RECA-1 antibody (MCA970) and anti-ED-2 (CD163, MCA342R) were from Serotec (Oxford, UK). […]
For these experiments, we used the HSC-T6 and the activated HSCs. […] FIG. 5A and FIG. 5C show the immunofluorescence staining with anti-CD74 antibody after 30 h of IFN-γ induction for HSC-T6 and activated HSCs respectively (arrows depict the increase in fluorescence). […]

[4] = IFN-γ 10 ng/ml, 2-24 h, HSC-T6, activated HSCs, CFSC-3H, vs untreated

B1: IFN-γ: recombinant rat interferon-γ purchased from BioVision, proinflammatory cytokine (protein, UniProt P01581 23-156, looked up)
Interferon gamma: QGTLIESLESLKNYFNSSSMDAMEGKSLLLDIWRNWQKDGNTKILESQIISFYLRLFEVLKDNQAISNNISVIESHLITNFFSNSKAKKDAFMSIAKFEVNNPQIQHKAVNELIRVIHQLSPESSLRKRKRSRC
- cathepsin S specific activity [1]: significant increase
- CIITA type III transcript ([2]; HSCs, data not shown): inducible
- increase in CIITA transcript level in activated HSCs relative to HSC-T6 and CFSC-3H ([2]; IFN-γ 10 ng/ml): > 20 times
- CIITA transcript level [2, 4]: started to increase at an early time point
- cathepsin S transcript level [2, 4]: upregulated
- mRNA expression of RT1-Dα and CD74 ([2]; IFN-γ 10 ng/ml, at a later time, indirectly through CIITA): induced
- cathepsin L mRNA level ([2]; IFN-γ 2, 4, 8 and 24 h, activated HSCs, HSC-T6, CFSC-3H, FIG. 4): no influence
- cathepsin L mRNA expression in CFSC-3H ([2]; after 8 h IFN-γ, CFSC-3H): decreased
- cathepsin S expression on the protein level ([3]; IFN-γ 8 h, quantified fluorescence intensities, FIG. 8): significant increase
- CD74 protein expression ([3]; IFN-γ 30 h): significantly induced
- RT1-B protein expression ([3]; IFN-γ 48 h): induced
